This is an account of results in patent publication US7029676B2.

Assay [1] has as its target integrin β1 subunit (human) (UniProt P05556).
Assay [2] deals with Human E-cadherin (human).
In assay [3] the target is Human E-cadherin (human). The source holds these as a separate data set.
For assay [4], the target named is Human E-cadherin (human). The source holds these as a separate data set.
The target in assay [5] is Human E-cadherin (human). This is another data set of the same source.

In the case of 4B4 (antibody), in assay [1], the inhibition of IEL adhesion to the 16E6.A5 epithelial cell monolayer came out at 21%.
In turn, “α^4β7 integrin (from UniProt P13612) (receptor)” yielded an adhesion of COS-7 transfectants to L-M E-cadherin transfectants (percent bound) in assay [2] of 16%. Besides, the adhesion of COS-7 transfectants to 16E6.A5 monolayers (percent bound) in assay [3] is 9%.
As to “α^Eβ7 integrin (from UniProt P38570) (receptor)”, the adhesion of COS-7 transfectants to L-M E-cadherin transfectants in assay [2] worked out at 81%. Moreover, the adhesion of α^Eβ7 COS-7 transfectants to L-M monolayers in assay [4] is 79%. Also, the adhesion of COS-7 transfectants to 16E6.A5 monolayers in assay [3] was determined as 267%. This substance also registered an adhesion of IEL to L-M monolayers (percent of IEL bound) in assay [5] of 89%.
